Results on one molecule are retold here after article PMC11218785, “Methyltransferase TaSAMT1 mediates wheat freezing tolerance by integrating brassinosteroid and salicylic acid signaling”.

The series has as its target T1, MBP-TaBZR1 (Triticum aestivum, UniProt A0A3B6AUH8 1-313).
T1 sequence: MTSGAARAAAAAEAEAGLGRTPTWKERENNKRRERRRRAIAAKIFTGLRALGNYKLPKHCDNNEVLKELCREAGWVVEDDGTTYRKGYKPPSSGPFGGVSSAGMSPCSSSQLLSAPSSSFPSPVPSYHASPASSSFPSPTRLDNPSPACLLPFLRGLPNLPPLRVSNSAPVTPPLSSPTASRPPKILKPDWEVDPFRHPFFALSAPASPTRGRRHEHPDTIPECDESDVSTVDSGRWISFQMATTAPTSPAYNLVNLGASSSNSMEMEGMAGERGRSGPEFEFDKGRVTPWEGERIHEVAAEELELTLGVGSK
Kind of series: EMSA; 1 nM probe; 1x LightShift binding buffer, 50 ng poly(dI-dC), 2.5% glycerol, 0.05% NP-40, 50 mM KCl, 5 mM MgCl2, 2 mM EDTA pH 8.0, 1 nM biotin probe, 25 C 20 min, 6% PAGE. As to conditions: protein: recombinant; tags: N-terminal MBP (pCold-MBP); chain copies: 2; label: biotin (forward strand primer marked bio); blunt.

B1: TaSAMT1-B promoter E-box probe (dsDNA)
DNA 1: CACGCGCATACGTGCTCATATGGCAATGAG
DNA 2: CTCATTGCCATATGAGCACGTATGCGCGTG
On to B1, for which the binding result is on record as “binds”.
